According to article PMC7895437:

Tests used:
golgin A3 = golgin A3 (UniProt Q08378); assay: anti-FLAG co-IP, golgin A3 Western blot; details: reference: Cα L206R, vehicle; sites S114
[1] = molecular target: PKA regulatory subunit IIβ, FLAG-tagged (RIIβ-FLAG) (human) (UniProt P31323); assay: co-IP
Sequence of UniProt P31323 (P31323 whole entry): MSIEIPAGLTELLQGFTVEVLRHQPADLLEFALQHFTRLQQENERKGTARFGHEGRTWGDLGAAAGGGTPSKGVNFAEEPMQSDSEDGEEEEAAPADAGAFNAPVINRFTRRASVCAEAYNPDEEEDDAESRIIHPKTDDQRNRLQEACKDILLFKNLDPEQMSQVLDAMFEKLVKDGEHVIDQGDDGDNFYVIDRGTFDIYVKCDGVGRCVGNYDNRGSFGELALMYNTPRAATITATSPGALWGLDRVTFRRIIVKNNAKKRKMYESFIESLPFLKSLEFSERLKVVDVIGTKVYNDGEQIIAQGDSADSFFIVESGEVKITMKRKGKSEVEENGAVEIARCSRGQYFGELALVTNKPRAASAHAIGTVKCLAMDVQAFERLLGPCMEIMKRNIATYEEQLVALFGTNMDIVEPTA

Row | Substance | other: densitometry, relative units (golgin A3) | densitometry of golgin A3 co-precipitated with RIIβ-FLAG (WB) [1]
1 | RIIβ (PKA regulatory subunit IIβ) (from UniProt P31323) Cα L206R, 8-Br-cAMP | lost; reference 1.8 ± 0.2 | 
2 | golgin A3 (from UniProt Q08378 1-1498) (natural protein) |  | 1.8
